# Assay results: the DeepSol protein solubility set
# Assay: soluble on expression in E. coli; label from the status in PepcDB or PDB records
row,Sequence,soluble on expression in E. coli
1,MAALRVPLSQQQLEQLKANKKWGEYVEAQAGQKYEHFTSPYKQSMLTVKEWIMPQGLVIYVRTDDGTYPARVVNAGPDNICVRIVKANKSDPEPETQISYDQVIKSTEVLKMEPLKFKWIRKKTDNLYSIEAFQNLSGFFNKKVFELLKKGDFMEYQHDDEPWKCTIVEIIENHNGLIFIRNGLFVRCVHMFSPFCHELGWADKLKETNDERAAGMTYKILIKLENDRDQRVIVDRHIFRNNTISPHRFQDLQVLVYLEEDHFYLAHVKCKTRKTGLTDSYFFQISRGTELVRDSLLSDNKMPVQFHLNDARIFGYRDLERLHFPIDLPDGVQKIEGESNVDAYIRTYCLTDKEKARVPRLNESEKRAMFDRKILSNEIGVHMKHGAMLRDSKFNPTAGSLTPWAGTKCAEVSWFLPSSGRTRNRRADLLAARVVKYTEHIAHLYVARLDKTIYMHVADPRLHPAGFADGVNLPIEYSDAFAKDADIEIQISQLEETLDNLACEQDSTKDQN,not soluble
2,MKKPIILRKRYIPDEVIDISGDELVFRSEDLLITKWNPIRKRPDISGGISFTFLKEGYKASKFFGPSGEFKYWYCDIIKVLYDEDEDKYTLVDLLLDVKIMPDGRVEVLDADELAEALKNNIISKEEACMCLSILDKILKMAYSGKFPPEICLKDY,soluble
3,MVVIMLNYDDIKIIDEIYSEGYLFAQYGIYIKKKFKQKIFKIPVDIGLGCPHKKNGGCIFCPEMGRPISVKYCSAKIPLKEQIKKQMENQKKKGFKKFYIYFYPGTNTYAPAEKLKEIWDFSLSYKEVIGLSIGTRPDCLEKEKLDILAEYVENGYDIWIDLGVQSMHQKTLEILNRGHDVSDIIKAIKDCHKRGIKVCGHVILGLPGESWKEMMETAKILSLLEIEAVKIYPLVVVKGTKLEEMYW,not soluble
4,MYLHGTSRINGQGHLEIGGCDTTQLAKQYGTPLYVYDEGSIRGKCRAFHRAFKESGFSYQVAYASKAFLCMEMCRVAREENMSLDVVSGGELYTALQAGFPASRIHFHGNNKTEEEIVMALQANIGCFVVDNFFELEVLHDLAMQHGKFVNILIRVTPGVEAHTHEYITTGQDDSKFGFGVSNGQAMQAIGLALQKSNYNVLGIHSHIGSQIFETAGFVRAIEVLRQFLEEVREQTNYVVKVLNVGGGFGIRYTESDTPLTLETYVRAVTSAVREQFTVCEYPLPEIWIEPGRSIVGDAGTTIYTVGSVKDIPGIRKYVSVDGGMTDNLRPALYNARYEAMLANRANDENEELVSIAGKCCESGDMLIWDIHLPKVAASDLLAVSCTGAYGYSMANNYNRIRRPAVVFAKGGTSQVVVERETYENIIGNDRIRIKELV,not soluble
5,MEDISDPEVILEYGVYPAFIKGYTQLKANIEEALLEMSNSGQALDIYQAVQTLNAENMLLNYYESLPFYLNRQSILANMTKALKDAHIREAMAHYKLGEFAHYQDTMLDMVERTIKTF,not soluble
6,SAAPSEVAAIAPGEGDGGGGGFGSWLDGRLEALGVDRAVYGAYILGILQEEEEEEKLDALQGILSAFLEEDSLLNICKEIVERWSETQNVVTKVKKEDEVQAIATLIEKQAQIVVKPRMVSEEEKQRKAALLAQYADVTDEEESLTEADEKDDSGATTMNIGSDKLLFRNTNVEDVLNARKLERDSLRDESQRKKEQDKLQRERDKLAKQERKEKEKKRTQRGERKR,soluble
7,PVDINAATHTIVRGDTVYNISKRYHISQDDFRAWNGMTDNTLSIGQIVKVKPAGYAAPKAAAVKSRPAVPAAAQPPVQSAPVDINAATHTIVRGDTVYNISKRYHISQDDFRAWNGMTDNMLSIGQIVKVKPAGYAAPKTAAVESRPAVPAAVQTPVKPAAQPPVQSAPQPAAPAAENKAVPAPAPQSPAASPSGTRSVGGIVWQRPTQGKVVADF,not soluble
8,MAGDPMKKQFLEKAVFTVAATAATVVLGNKMADADTYTLQEGDSFFSVAQRYHMDAYELASMNGKDITSLILPGQTLTVNGSAAPDNQAAAPTDTTQATTETNDANANTYPVGQCTWGVKAVATWAGDWWGNGGDWASSASAQGYTVGNTPAVGSIMCWTDGGYGHVAYVTAVGEDGKVQVLESNYKDQQWVDNYRGWFDPNNSGTPGSVSYIYPNLEHHHHHH,soluble
9,MPSISKTKSGERYRAPTDQARKMDRKKENKRNKKDRQQIRQAMAKYCNLDETTSKLLALERQILGLDPQPFHIDVLRKKQKVLTDSINKRRMTLQQGKEDAELKKFNDKINAYQSDCQKLAVLAQQARLAREADPDMIPLPMGDVSTAGPERNNQLLAPAMIKRKVEFQLPPRPVRVAGQKPPGPPCGLAPNFSDSEEEEEEVHDDHYDDIDLAPVPIPEFDNPYQPIHRNYGPPSSYNSMPTRMPHHHHHHHPHASSHYNPMGFQNHHEEAVISSAPQINRSNEPAAPATLSAAPELRNLRRETVKLVPAQLLRRPGDNKTIVPRQAAPVQRRPEVQKQAKNTDEAYNDFMKELDGLI,not soluble
10,MSLSGIINNREYRQKVLKEIILELHNGKSVDEVRKRFQELIKGVSTKEISEMEAQLIKEGMKVEEIQRLCDVHAAVFKGSIDQIHHPEKEEGHPVSVLKKENEAVKNYIQSHLTPNLEEIKKSDSHSTRLKLMENISMLFDLDKHYSRKENLIFPYLEKYGITAPPKVMWGVDDEIREALKECKEVINSANKTPNEITEKVESTLKRIEEMIFKEESILLPMCIDTFSEDEWLDIESESDEIGYCLISPSEKWKPKRENVEEKEKSKLANENSEGYIKFDTGILRVNELSAILDTLPLDITFVDKDGTVKYFSGGSERIFARTRAVIGRKVQNCHPPASVHIVEKVVEDLKSGKKDHEDFWLHMGELYVFIRYYAVKDNKGEFIGVLEVTQNIKEIQEITGEKRLIEEGHHHHHH,soluble
11,MSDSDDNAYSDYLGNRRAALQKKRQPVRVCESDDSDDDFDTSGPSPMRKKTRETQLFPDDSDDDECVEVEKETYSQKVRHEIDDVEEAYRRSIYKRETVIHAPVEKNNVISGLLKICEGWDEAAKSGAQPEVEDVKDDSDADESSIAAENFPVTVVILDCESHGNDMKSRHDIFLESTFSEIRRIYATKWGCPVSCVVFSHNGKTIDTYTTPQSLGWRPMTLPHPLIEASKEAGEPAEVFTIENSPDSFTIKVLLASRRKPVQVEAAKDTTIQEILQKVIDAFVEDKEENIPSIESMKVVFDNERIKDVNITCEQLDLEDDDCIEVYF,not soluble
12,MRAIVLLSVLISCYLVIAEDYYELLGVERDADDRTIRKAFKKLAIKKHPDRNTDDPNAHDEFVKINKAYEVLKDENLRKKYDQFGEKGLEDGFQGGNNYQSWQFYNDNFGIYDDDQEIVTLNRADFQRMVSDSNEIWFINFYSTYCSHCHQLAPTWRKFAREIEGTIRVGAVNCAEDPQLCQSQRVNAYPSLVFYPTGEFYQGHRDVELMVDFAIQRLKSEVLHLNSENWKALSEDWEPYNRLPWVVDMCGGDHIDCLSSTTRRKLSSMLDGLANVATIDCNAEEALCSKFNPITSGVMWFPARKLVKKSQINIESMDAQEISKSVIQYLDELEDISVESLQRLLEGNDPDEPIAVWMLANDAQSTERKDFRRLPALVTTQIFKFDCSKSSEICDELLDKTKLPQFMVFKTTGGYEIDYAGSKDFHAASTFIREASKSHIHVLNRDSYEYAISGGEFYIIDYFAPWCPPCMKLLGEYRRFHTATSEDSMLHTVAIGSLDCVKYKDLCQQAGVQSYPTSIVYTPDGKTHKMVGYHNVDYILEFLDNSLNPSVMEMSPEQFEELVMNRKDEETWLVDFFAPWCGPCQQLAPELQKAARQIAAFDENAHVASIDCQKYAQFCTNTQINSYPTVRMYPAKKTKQPRRSPFYDYPNHMWRNSDSIQRWVYNFLPTEVVSLGNDFHTTVLDSSEPWIVDFFAPWCGHCIQFAPIYDQIAKELAGKVNFAKIDCDQWPGVCQGAQVRAYPTIRLYTGKTGWSRQGDQGIGIGTQHKEQFIQIVRQQLKLDEHDEL,not soluble
13,MGSDKIHHHHHHMTNLLEASIEQAGYTSRKKVLTDVFLEVRKGELVGLIGANGAGKSTAIKAILGLSEDFKGHIAWNDCSFAYIPEHPSFYEELTLWEHLDLISTLHGIEESEFAHRAQSLLQTFSLDHVKHELPVTFSKGMQQKLMLIQAFLSKPDMYVIDEPFIGLDPISTKRFVDMLKAEKERGAGILMCTHVLDTAEKICDRFYMIEKGSLFLQGTLKDVQDKTGLEGQSLLDCFYKAVQGDRL,not soluble
14,MAPPNGTTNGETEVATQGSYTAVSTGRKTTMHRLIEEHGSVLMPGVQDALSAAVVEKTGFHAAFVSGYSVSAAMLGLPDFGLLTTTEVVEATRRITAAAPNLCVVVDGDTGGGGPLNVQRFIRELISAGAKGVFLEDQVWPKKCGHMRGKAVVPAEEHALKIAAAREAIGDSDFFLVARTDARAPHGLEEGIRRANLYKEAGADATFVEAPANVDELKEVSAKTKGLRIANMIEGGKTPLHTPEEFKEMGFHLIAHSLTAVYATARALVNIMKILKEKGTTRDDLDQMATFSEFNELISLESWYEMESKFKNFTPKAT,soluble
15,MSFMDKVKDTANSAYESVENTAVGAKDGVVGAFNTVGEKIGGAYDSTKQYASDKVSAAGDYASEAGKKVGDAEDSMIQGAYDAKDSAKESASNAGNKISNAFTSLKDSITGDNAHKTGEALNDNYESVKESASEAADRLKEPAQNTADNAKDLANQTGEEMSDAFESVKQLTSDTAENAKENAHDAADTAKSYKDKAGEKASGILDSFKAHASDAKDSVENKASDAYNSAKDKAGDAWDSTKDAAGDAKDKTKSFTEKVGDKISGAYDSVKEKASDVADSFKAHSTDSKDNVENKAADAYNTAKDKASDAWDKTKDKAGEAKDKMGDAWDTTKDKAGDAWDTTKDKAGDGKGKAGDAWDTTKDKASDAWDTTKDKAGEAKDKMGEAWDHTKDKAGEAKDKASDAADDAQGKSKSMTEKIGDSISGAWESTKDTAVSAKDKTAEAAGKVGDSISGAYDTVKEKASDIADSFKAHSTDSKDNVENKAADAYNSAKDKASDAWDKTKDKAGDAKDKAADAWDTTKDKAGDAWDSTKDHAADAKDKASDAAGDAKDKSKSLTEKAGDAISGAYDSVKEKASDIADSFKAHSTNSKDNVENKASDAYNSAKDKASDAWDKTKDKAGEAKDKAGDAWDNTKDKAGNAWDSTKDKASDAWDTTKDKASDAKESAGDAADSAKDKSKSITETIGDKISGAYDSVKEKASDVADSFKAHSSDAQDTVEVSHHKYFNVFSSFE,soluble
16,MKPKPLKCITSHHYIIKFYDKSNLRTSLYLLIFKEHKDYREQMKVYIIDYHKDDPKRCTGKKLVKLKIAEFTRVGKGVVLDPFAQITLSNKDKDIVRRIGITIVDTSWNNTSQSEFKNIRGEHRRIPILFAGNPIHYGIAYKLSSIEALIATLYIVDEVEEAIKLSNVVKWGHTFIELNKELLEAYKNKTEEDIKKIEREIIEKILEKLEHHHHHH,not soluble
17,MGSDKIHHHHHHMSIINDEKLRKYVPEERLDKVKERLEILDTYDLSYITSNFIWKGRRFSPEQVWPIKIYYGKADRELAEKIEKEFRRFVALTIVFPKRLFTASGAVDLYWHFLILHTKEYEKFSKSVWGIPRYDNVLLKKLLNNDDNSFRLRFNLKPDNVNEITILPKKALESLDDKTLDRVLMLERLDLSPISENLLHTIDEFKFVPEQRFPLIAHFGKLDNNIVKRIELEFKKWMALNIAYGGKELNYAAPSGVVDMYFHLFILHTILYKQFCEIFFGKFIHHPLGELF,not soluble
18,TTYKHSLQDLTAQRSLGAIPFAGRYRLIDFMLSNMVNADIRSVAIFPKYRYRSLMDHLGAGKEWDLHRKKDGLFFFPSPHLHHEYDEFGSFRQFSDHLDYFHRSTQQYAVISNSHTVCNIQFQYVLKRHQEVGCDVTEVFQDGQSLQIYIMSTTLLKDLIYGHSEKGYKTIQEAVEKESSALTICPYEYSGYAAVIDSVEKYYTHSMELIQPRFWQQVFLPQQPIYTKVKDEPPTKYGKHSTVKNSLVANGCVLEGEVENCILFRAVHVGKGTKLKNCIIMQKTQIGEDCLLEQVISDKDVKIGKATEAAGTAEQPLVLRKGLVQGE,not soluble
19,MKLESPLGSDLARLVRIWRALIDHRLKPLELTQTHWVTLHNIHQLPPDQSQIQLAKAIGIEQPSLVRTLDQLEEKGLISRQTCASDRRAKRIKLTEKAEPLISEMEAVINKTRAEILHGISAEELEQLITLIAKLEHNIIELQAKG,not soluble
